Laboratory results reported in US20110135634A1, “METHODS OF INHIBITING INFECTION BY DIVERSE SUBTYPES OF DRUG-RESISTANT HIV-1” (priority 2007, published 2011).
Where “and” joins values, the source holds several entries; their conditions need not be identical. Equal entries are not always repeated. Where two headings read alike, the source gives them in different places.

Experiments:
CD4 (human) = CD4 (human) (UniProt P01730); assay: cell-based or functional assay
[1] = target: CCR5 (CC-chemokine receptor 5) (human) (UniProt P51681); assay: cell-based or functional assay
[2] = target: CCR5 (CC-chemokine receptor 5) (human) (UniProt P51681); assay: cell-based or functional assay; remark: listed apart in the source
[3] = target: CCR5 (CC-chemokine receptor 5) (human) (UniProt P51681); assay: flow cytometry competition; unlabeled PRO 140 pre-incubated with CEM.NKR-CCR5 cells, then 5 nM PRO 140-PE as competitor; MFI read-out
[4] = target: CCR5 (CC-chemokine receptor 5) (human) (UniProt P51681); assay: flow cytometry competition; unlabeled PRO 140 pre-incubated with CEM.NKR-CCR5 cells, then 5 nM PRO 140-PE as competitor; percent cells gated read-out
[5] = target: CCR5 (CC-chemokine receptor 5) (human) (UniProt P51681); assay: displacement of labelled ligand; PRO 140 pre-incubated with CEM.NKR-CCR5 cells, then 2 nM 3H-UK-427,857 (small molecule) as competitor; scintillation counting

anti-CD4 mAb Leu-3A (antibody) was tested, and the HIV-1 Env-mediated cell-cell fusion, RET assay (CD4 (human)) was 500 ng/mL.

anti-CCR5 mAb 2D7 (antibody) was tested, and the IC50, HIV-1 reporter virus pseudotyped with JRFL envelope, U87-CD4-CCR5 cells [1] was 8.8 nM, the IC50, HIV-1 reporter virus pseudotyped with SF162 envelope, U87-CD4-CCR5 cells [1] was 2.2 nM and the IC90, HIV-1 reporter virus pseudotyped with JRFL envelope, U87-CD4-CCR5 cells [1] was > 200 nM. For the same molecule, the IC90, HIV-1 reporter virus pseudotyped with SF162 envelope, U87-CD4-CCR5 cells [1] was 74 nM.

B1: PRO 140, humanized IgG4,κ anti-CCR5 monoclonal antibody (antibody, INN chains, looked up, V domains shown)
VH: EVQLVESGGGLVKPGGSLRLSCAASGYTFSNYWIGWVRQAPGKGLEWIGDIYPGGNYIRNNEKFKDKTTLSADTSKNTAYLQMNSLKTEDTAVYYCGSSFGSNYVFAWFTYWGQGTLVTVSS
VL: DIVMTQSPLSLPVTPGEPASISCRSSQRLLSSYGHTYLHWYLQKPGQSPQLLIYEVSNRFSGVPDRFSGSGSGTDFTLKISRVEAEDVGVYYCSQSTHVPLTFGQGTKVEIK
With B1 the IC50, HIV-1 reporter virus pseudotyped with JRFL envelope, U87-CD4-CCR5 cells [2] was 2.2 nM, the IC50, HIV-1 reporter virus pseudotyped with SF162 envelope, U87-CD4-CCR5 cells [2] was 1.3 nM and the IC50, PhenoSense HIV Entry assay, U87-CD4/CCR5 cells, virus DUAL [2] was 0.347 µg/mL. It also gave an IC50, PhenoSense HIV Entry assay, U87-CD4/CCR5 cells, virus JRCSF [2] of 0.574 µg/mL, an IC50, PhenoSense HIV Entry assay, U87-CD4/CCR5 cells, virus Panel 1 (subtype A) [2] of 0.199 µg/mL and an IC50, PhenoSense HIV Entry assay, U87-CD4/CCR5 cells, virus Panel 2 (subtype A) [2] of 0.305 µg/mL. The IC50, PhenoSense HIV Entry assay, U87-CD4/CCR5 cells, virus Panel 3 (subtype A) [2] was 0.414 µg/mL, the IC50, PhenoSense HIV Entry assay, U87-CD4/CCR5 cells, virus Panel 4 (subtype A) [2] was 0.508 µg/mL and the IC50, PhenoSense HIV Entry assay, U87-CD4/CCR5 cells, virus Panel 5 (subtype C) [2] was 0.356 µg/mL. For the same molecule, the IC50, PhenoSense HIV Entry assay, U87-CD4/CCR5 cells, virus Panel 6 (subtype C) [2] was 0.318 µg/mL, the IC50, PhenoSense HIV Entry assay, U87-CD4/CCR5 cells, virus Panel 7 (subtype C) [2] was 0.0955 µg/mL and the IC50, PhenoSense HIV Entry assay, U87-CD4/CCR5 cells, virus Panel 8 (subtype C) [2] was 0.527 µg/mL. For the same molecule, the IC50, PhenoSense HIV Entry assay, U87-CD4/CCR5 cells, virus Panel 9 (subtype D) [2] was 0.679 µg/mL, the IC50, PhenoSense HIV Entry assay, U87-CD4/CCR5 cells, virus Panel 10 (subtype D) [2] was 0.59 µg/mL and the IC50, PhenoSense HIV Entry assay, U87-CD4/CCR5 cells, virus Panel 11 (subtype D) [2] was 0.365 µg/mL. The IC50, PhenoSense HIV Entry assay, U87-CD4/CCR5 cells, virus Panel 12 (subtype D) [2] was 0.238 µg/mL, the IC50, PhenoSense HIV Entry assay, U87-CD4/CCR5 cells, virus Panel 13 (subtype F) [2] was 0.788 µg/mL and the IC50, PhenoSense HIV Entry assay, U87-CD4/CCR5 cells, virus Panel 14 (subtype F) [2] was 0.657 µg/mL. It also gave an IC50, PhenoSense HIV Entry assay, U87-CD4/CCR5 cells, virus Panel 15 (subtype F) [2] of 0.332 µg/mL, an IC50, PhenoSense HIV Entry assay, U87-CD4/CCR5 cells, virus Panel 16 (subtype F) [2] of 0.342 µg/mL and an IC50, PhenoSense HIV Entry assay, U87-CD4/CCR5 cells, virus Panel 17 (subtype G) [2] of 0.26 µg/mL. For the same molecule, the IC50, PhenoSense HIV Entry assay, U87-CD4/CCR5 cells, virus Panel 18 (subtype G) [2] was 1.43 µg/mL, the IC50, PhenoSense HIV Entry assay, U87-CD4/CCR5 cells, virus Panel 19 (subtype G) [2] was 0.384 µg/mL and the IC50, PhenoSense HIV Entry assay, U87-CD4/CCR5 cells, virus Panel 20 (subtype G) [2] was 0.432 µg/mL. The IC50, PhenoSense HIV Entry assay, U87-CD4/CCR5 cells, virus Panel 21 (subtype J) [2] was 0.525 µg/mL, the IC50, PhenoSense HIV Entry assay, U87-CD4/CCR5 cells, virus Panel 22 (subtype J) [2] was 0.436 µg/mL and the IC50, PhenoSense HIV Entry assay, U87-CD4/CCR5 cells, virus Panel 23 (subtype J) [2] was 0.269 µg/mL. It also gave an IC50, PhenoSense HIV Entry assay, U87-CD4/CCR5 cells, virus Panel 24 (subtype B) [2] of 0.547 µg/mL, an IC50, PhenoSense HIV Entry assay, U87-CD4/CCR5 cells, virus Panel 25 (subtype B) [2] of 0.519 µg/mL and an IC50, PhenoSense HIV Entry assay, U87-CD4/CCR5 cells, virus Panel 26 (subtype B) [2] of 0.442 µg/mL. It also gave an IC50, PhenoSense HIV Entry assay, U87-CD4/CCR5 cells, virus Panel 27 (subtype B) [2] of 0.575 µg/mL, an IC50, PhenoSense HIV Entry assay, U87-CD4/CCR5 cells, virus Panel 31 JRCSF-N43D [2] of 0.67 µg/mL and an IC90, HIV-1 reporter virus pseudotyped with JRFL envelope, U87-CD4-CCR5 cells [2] of 28 nM. For the same molecule, the IC90, HIV-1 reporter virus pseudotyped with SF162 envelope, U87-CD4-CCR5 cells [2] was 20 nM, the IC90, PhenoSense HIV Entry assay, U87-CD4/CCR5 cells, virus DUAL [2] was 1.56 µg/mL and the IC90, PhenoSense HIV Entry assay, U87-CD4/CCR5 cells, virus JRCSF [2] was 18.3 µg/mL. The IC90, PhenoSense HIV Entry assay, U87-CD4/CCR5 cells, virus Panel 1 (subtype A) [2] was 1.69 µg/mL, the IC90, PhenoSense HIV Entry assay, U87-CD4/CCR5 cells, virus Panel 2 (subtype A) [2] was 4.51 µg/mL and the IC90, PhenoSense HIV Entry assay, U87-CD4/CCR5 cells, virus Panel 3 (subtype A) [2] was 3.38 µg/mL. The IC90, PhenoSense HIV Entry assay, U87-CD4/CCR5 cells, virus Panel 4 (subtype A) [2] was 3.45 µg/mL, the IC90, PhenoSense HIV Entry assay, U87-CD4/CCR5 cells, virus Panel 5 (subtype C) [2] was 6.52 µg/mL and the IC90, PhenoSense HIV Entry assay, U87-CD4/CCR5 cells, virus Panel 6 (subtype C) [2] was 3.37 µg/mL. It also gave an IC90, PhenoSense HIV Entry assay, U87-CD4/CCR5 cells, virus Panel 7 (subtype C) [2] of 0.447 µg/mL, an IC90, PhenoSense HIV Entry assay, U87-CD4/CCR5 cells, virus Panel 8 (subtype C) [2] of 7.25 µg/mL and an IC90, PhenoSense HIV Entry assay, U87-CD4/CCR5 cells, virus Panel 9 (subtype D) [2] of 15.3 µg/mL. The IC90, PhenoSense HIV Entry assay, U87-CD4/CCR5 cells, virus Panel 10 (subtype D) [2] was 5.65 µg/mL, the IC90, PhenoSense HIV Entry assay, U87-CD4/CCR5 cells, virus Panel 11 (subtype D) [2] was 4.33 µg/mL and the IC90, PhenoSense HIV Entry assay, U87-CD4/CCR5 cells, virus Panel 12 (subtype D) [2] was 2.08 µg/mL. It also gave an IC90, PhenoSense HIV Entry assay, U87-CD4/CCR5 cells, virus Panel 13 (subtype F) [2] of 16.7 µg/mL, an IC90, PhenoSense HIV Entry assay, U87-CD4/CCR5 cells, virus Panel 14 (subtype F) [2] of 21.9 µg/mL and an IC90, PhenoSense HIV Entry assay, U87-CD4/CCR5 cells, virus Panel 15 (subtype F) [2] of 5.88 µg/mL. For the same molecule, the IC90, PhenoSense HIV Entry assay, U87-CD4/CCR5 cells, virus Panel 16 (subtype F) [2] was 14 µg/mL, the IC90, PhenoSense HIV Entry assay, U87-CD4/CCR5 cells, virus Panel 17 (subtype G) [2] was 2.41 µg/mL and the IC90, PhenoSense HIV Entry assay, U87-CD4/CCR5 cells, virus Panel 18 (subtype G) [2] was 50.7 µg/mL. The IC90, PhenoSense HIV Entry assay, U87-CD4/CCR5 cells, virus Panel 19 (subtype G) [2] was 3.51 µg/mL, the IC90, PhenoSense HIV Entry assay, U87-CD4/CCR5 cells, virus Panel 20 (subtype G) [2] was 5.65 µg/mL and the IC90, PhenoSense HIV Entry assay, U87-CD4/CCR5 cells, virus Panel 21 (subtype J) [2] was 6.06 µg/mL. For the same molecule, the IC90, PhenoSense HIV Entry assay, U87-CD4/CCR5 cells, virus Panel 22 (subtype J) [2] was 9.24 µg/mL, the IC90, PhenoSense HIV Entry assay, U87-CD4/CCR5 cells, virus Panel 23 (subtype J) [2] was 3.3 µg/mL and the IC90, PhenoSense HIV Entry assay, U87-CD4/CCR5 cells, virus Panel 24 (subtype B) [2] was 10.1 µg/mL. It also gave an IC90, PhenoSense HIV Entry assay, U87-CD4/CCR5 cells, virus Panel 25 (subtype B) [2] of 12.2 µg/mL, an IC90, PhenoSense HIV Entry assay, U87-CD4/CCR5 cells, virus Panel 26 (subtype B) [2] of 8.91 µg/mL and an IC90, PhenoSense HIV Entry assay, U87-CD4/CCR5 cells, virus Panel 27 (subtype B) [2] of 6.5 µg/mL. For the same molecule, the IC90, PhenoSense HIV Entry assay, U87-CD4/CCR5 cells, virus Panel 31 JRCSF-N43D [2] was 16.1 µg/mL, the IC90, neutralization of primary R5 HIV-1 isolates, whole virus replication assay [2] was 3 µg/mL and 4 µg/mL and the EC50 [3] was 2.5 nM. It also gave an EC90 [4] of 17 nM and an EC50 [5] of 14 nM.
